Laboratory results reported in publication PMC6380602, “The polymeric immunoglobulin receptor-like protein from Marsupenaeus japonicus is a receptor for white spot syndrome virus infection” (PLoS Pathogens, 2019).

Molecular target: the molecule itself
Experiment: cross-linking; BS3 (5 mM, 2 h, room temperature) on hemocytes of shrimp 30 min after WSSV injection, SDS-PAGE, western blotting with anti-MjpIgR antibodies; oligomer size by molecular mass

B1: native MjpIgR (Marsupenaeus japonicus polymeric immunoglobulin receptor-like protein) (receptor, UniProt A0A3S8D7Y1 1-562, looked up)
chain: QEYSVDEPNNRDVVFNGVQSSDVSLIFDDADIIVNPGERLDLNCGFQGQYRHCIWELEGAKPIQVQDVYDDVHPGMSRPEVSEGNECGIVINSVSTEQHGKWTCRVFITGNSLEGSKKVIVTVKPTYPILEVDNSQLLEVTSDAETPVKCVVAAARPAVGIRWFLGDKDVTVMAETEETPTDNEGMYKSISTLRRTFEPMENGMMLVCSVSHKTLTVPENASIPLNVVFKPVEKPVSTYYQIRPGSDYEVKLNFSANPPPTRKEWRYGDTFQNIAVSIEIPGAKDRYETYIEELGNGMYTATLRIAGFKEEDANQRYMLVVQNDLGETSYKVRLSMDDAPKDGDSETRDHDKNPSTEYSVSEGIVFDDDTMSNTLSGGAVAGIVIVVLIIVTAVAAAGYARYRQMFCFAPVVTPDPEEGKETKEEHSDTESARGANTTRAANLKNSLGRLTQVFKKPKKEQETKLENIGDDEKRSLTTEDPKKGSPIKEQNVDDKEVVYAELDLGKSESDKKTEVKAEDKTEYAQIVGTVTDNREDEKKE
notes: also called pIgR-like protein; source: endogenous, hemocytes of M. japonicus 30 min after WSSV injection
stoichiometry N: 4
